Experimental data taken from IntAct's records for PubMed 17392269.

B1: Protein Pixie (Drosophila melanogaster (Fruit fly)), Q9VSS1 (parent)
chain: MSRRKENEEVDKQTRIAIVSDDKCKPKRCRQECKKTCPVVRMGKLCIEVTPTSKIASLSEELCIGCGICVKKCPFEAITIINLPSNLEKHTTHRYSKNSFKLHRLPIPRPGEVLGLVGQNGIGKSTALKILAGKQKPNLGKYANPPDWTEILSYFRGSELQNYFTKILEDNLKALVKPQYVDQIPKAVRGAVGDLLDKKDERELQTKICEMLDLSHIRDREIAQLSGGELQRFAIAMVCIQNADIFMFDEPSSYLDVKQRLNAALTIRSLLHPTKFIIVVEHDLSVLDYLSDFICCLYGVPGCYGVVTMPFSVREGINIFLDGFVPTENMRFRTESLTFKVSESATEEEIKRMNHYVYPAMVKTLGKFELTVEKGHFSDSEILVLLGENGTGKTTFIRMLAGNLQPDGEVELPMLNISYKPQKISPKFQNHVRHLLHDKIRDAYVHPQFIADVMKPMKIEEIMDQEVQNLSGGELQRVALVLCLGKPADVYLIDEPSAYLDSEQRLVAAKVIKRYILHAKKTGFVVEHDFIMATYLADRVIVIEGQPSVKTTAFSPQSLLNGMNRFLELLGITFRRDPNNFRPRINKNNSVKDTEQKRSGQFFFLEDEACN
partner: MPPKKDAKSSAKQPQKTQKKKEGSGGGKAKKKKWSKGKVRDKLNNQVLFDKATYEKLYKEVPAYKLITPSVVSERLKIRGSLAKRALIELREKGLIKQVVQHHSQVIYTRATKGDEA

Variants of: B1
Conditions: with rs25_drome RpS25, P48588

Row | effect of a mutation on the interaction | Variant
1 | increasing interaction | E503Q
